Series [1] in a line: SEC; GNL-purified Env from 293F supernatant on a Superdex 200 Increase 10/300 GL column; profile decomposed into aggregates, trimer and dimer/monomer fractions (UNICORN).
Series [2] has as its target BG505 UFO trimer (HIV-1). Put plainly: negative-stain EM; purified Env proteins at 0.05 mg/ml, 2% uranyl acetate, reference-free 2D class averages.
For series [3], the target named is BG505 UFO trimer (HIV-1). In words: native gel or EMSA.
The target of series [4] is CNE5 chimeric UFO trimer with CNE6 gp41_(ECTO) (HIV-1). Put plainly: negative-stain EM; purified Env proteins at 0.05 mg/ml, 2% uranyl acetate, reference-free 2D class averages.
Series [5] deals with CNE6 UFO trimer (HIV-1). The description is as above.
Series [6] addresses CNE6 UFO trimer (HIV-1). In words: native gel or EMSA.
The target of series [7] is CNE107 chimeric UFO trimer with CNE6 gp41_(ECTO) (HIV-1). Put plainly: negative-stain EM; purified Env proteins at 0.05 mg/ml, 2% uranyl acetate, reference-free 2D class averages.
Series [8] addresses MG11 chimeric UFO trimer with CNE6 gp41_(ECTO) (HIV-1). The series is described as above.
Series [9] has as its target MG13 UFO trimer (HIV-1). The series is described as above.
Series [10] addresses MG13 UFO trimer (HIV-1). In words: native gel or EMSA.

Take BG505 UFO trimer: in series [1], the “trimer content (% of the SEC profile)” value is given as “a rate of proper trimer folding of about 75.5%”.

On to BG505 UFO trimer (domain or fragment), for which the stoichiometry N with BG505 UFO trimer (HIV-1) [2] and with BG505 UFO trimer (HIV-1) [3] was 3 in each case.

“CNE5 chimeric UFO trimer with CNE6 gp41_(ECTO) (domain or fragment)”: the stoichiometry N in series [4] was 3.

For the substance CNE6 SOSIP trimer, in [1], the “trimer content (% of the SEC profile)” value was found to be 21.3% for the SOSIP construct.

For the substance CNE6 UFO trimer, the “trimer content (% of the SEC profile)” value in series [1] is “as high as 70.1% for CNE6”.

For CNE6 UFO trimer (domain or fragment), the stoichiometry N in the series with CNE6 UFO trimer (HIV-1) [5] and in the series with CNE6 UFO trimer (HIV-1) [6] was 3 each time.

In series [7], “CNE107 chimeric UFO trimer with CNE6 gp41_(ECTO) (domain or fragment)” had a stoichiometry N of 3.

In the case of “MG11 chimeric UFO trimer with CNE6 gp41_(ECTO) (domain or fragment)”, the stoichiometry N in [8] was 3.

MG13 UFO trimer: the “trimer content (% of the SEC profile)” value in series [1] was 85.6% for MG13.

As to MG13 UFO trimer (domain or fragment), the stoichiometry N in the series with MG13 UFO trimer (HIV-1) [9] and with MG13 UFO trimer (HIV-1) [10] was 3 throughout.

The values above are taken from PMC7178897.
